One protein from patent publication US7018836 can be followed below.

The data set deals with Drosophila RNA polymerase II large subunit, P04052.
Chain of Drosophila RNA polymerase II large subunit, P04052 (P04052 whole entry): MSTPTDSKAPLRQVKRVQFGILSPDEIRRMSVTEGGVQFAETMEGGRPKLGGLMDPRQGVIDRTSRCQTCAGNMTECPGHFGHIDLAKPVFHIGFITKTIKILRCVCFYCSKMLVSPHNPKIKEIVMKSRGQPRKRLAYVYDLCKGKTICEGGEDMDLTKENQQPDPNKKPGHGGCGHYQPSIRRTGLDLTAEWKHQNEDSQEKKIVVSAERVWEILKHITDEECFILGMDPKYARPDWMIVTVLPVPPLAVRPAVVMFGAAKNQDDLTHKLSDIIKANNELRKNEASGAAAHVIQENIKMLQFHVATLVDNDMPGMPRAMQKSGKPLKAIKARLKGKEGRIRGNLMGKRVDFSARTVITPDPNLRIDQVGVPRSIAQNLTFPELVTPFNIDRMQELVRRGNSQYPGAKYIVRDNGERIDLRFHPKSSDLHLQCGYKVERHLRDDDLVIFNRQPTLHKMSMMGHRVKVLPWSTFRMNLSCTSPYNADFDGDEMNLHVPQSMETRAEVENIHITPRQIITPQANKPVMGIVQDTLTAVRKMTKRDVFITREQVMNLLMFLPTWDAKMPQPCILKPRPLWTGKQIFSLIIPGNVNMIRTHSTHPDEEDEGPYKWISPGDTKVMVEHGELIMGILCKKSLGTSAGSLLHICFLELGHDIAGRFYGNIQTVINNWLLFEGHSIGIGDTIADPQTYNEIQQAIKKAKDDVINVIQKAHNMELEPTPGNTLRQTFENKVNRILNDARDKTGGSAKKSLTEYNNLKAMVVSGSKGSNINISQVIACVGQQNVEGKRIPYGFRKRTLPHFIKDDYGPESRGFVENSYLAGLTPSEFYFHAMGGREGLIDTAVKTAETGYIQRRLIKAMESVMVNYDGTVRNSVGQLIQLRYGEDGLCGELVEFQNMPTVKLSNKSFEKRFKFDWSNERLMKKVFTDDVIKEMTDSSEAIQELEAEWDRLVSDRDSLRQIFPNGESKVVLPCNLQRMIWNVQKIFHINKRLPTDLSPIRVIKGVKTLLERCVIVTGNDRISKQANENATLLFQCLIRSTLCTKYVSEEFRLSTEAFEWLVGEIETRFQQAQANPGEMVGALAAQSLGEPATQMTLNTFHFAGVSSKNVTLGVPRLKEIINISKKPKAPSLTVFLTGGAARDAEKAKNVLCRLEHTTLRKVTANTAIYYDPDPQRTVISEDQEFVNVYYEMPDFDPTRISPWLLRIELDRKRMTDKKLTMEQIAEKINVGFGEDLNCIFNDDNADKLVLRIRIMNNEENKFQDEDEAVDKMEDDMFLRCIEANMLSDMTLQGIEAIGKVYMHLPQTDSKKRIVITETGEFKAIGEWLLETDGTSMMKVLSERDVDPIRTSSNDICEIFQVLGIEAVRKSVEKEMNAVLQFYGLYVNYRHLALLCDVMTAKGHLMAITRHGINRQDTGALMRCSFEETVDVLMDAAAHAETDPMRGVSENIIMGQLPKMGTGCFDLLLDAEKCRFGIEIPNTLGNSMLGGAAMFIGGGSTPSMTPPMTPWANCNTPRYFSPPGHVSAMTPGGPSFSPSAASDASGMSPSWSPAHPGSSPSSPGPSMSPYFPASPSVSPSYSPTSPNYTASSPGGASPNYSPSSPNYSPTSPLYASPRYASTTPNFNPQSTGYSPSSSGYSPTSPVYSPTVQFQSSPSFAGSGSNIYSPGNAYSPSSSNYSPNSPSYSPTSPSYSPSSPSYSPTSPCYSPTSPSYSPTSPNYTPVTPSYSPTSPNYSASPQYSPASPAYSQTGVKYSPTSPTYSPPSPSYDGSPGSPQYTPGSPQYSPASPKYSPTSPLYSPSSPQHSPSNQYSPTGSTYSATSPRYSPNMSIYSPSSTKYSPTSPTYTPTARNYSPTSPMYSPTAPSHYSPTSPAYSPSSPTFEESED

B1: Drosophila P-TEFb (protein)
chain 1: MAHMSHMLQQPSGSTPSNVGSSSSRTMSLMEKQKYIEDYDFPYCDESNKYEKVAKIGQGTFGEVFKAREKKGNKKFVAMKKVLMDNEKEGFPITALREIRILQLLKHENVVNLIEICRTKATATNGYRSTFYLVFDFCEHDLAGLLSNMNVKFSLGEIKKVMQQLLNGLYYIHSNKILHRDMKAANVLITKHGILKLADFGLARAFSIPKNESKNRYTNRVVTLWYRPPELLLGDRNYGPPVDMWGAGCIMAEMWTRSPIMQGNTEQQQLTFISQLCGSFTPDVWPGVEELELYKSIELPKNQKRRVKERLRPYVKDQTGCDLLDKLLTLDPKKRIDADTALNHDFFWTDPMPSDLSKMLSQHLQSMFEYLAQPRRSNQMRNYHQQLTTMNQKPQDNSMIDRVW
chain 2: MSLLATPMPQAATASSSSSASAAASASGIPITANNNLPFEKDKIWYFSNDQLANLPSRRCGIKGDDELQYRQMTAYLIQEMGQRLQVSQLCINTAIVYMHRFYAFHSFTHFHRNSMASASLFLAAKVEEQPRKLEHVIRAANKCLPPTTEQNYAELAQELVFNENVLLQTLGFDVAIDHPHTHVVRTCQLVKACKDLAQTSYFLASNSLHLTSMCLQYRPTVVACFCIYLACKWSRWEIPQSTEGKHWFYYVDKTVSLDLLKQLTDEFIAIYEKSPARLKSKLNSIKAIAQGASNRTANSKDKPKEDWKITEMMKGYHSNITTPPELLNGNDSRDRDRDRERERERERDPSSLLPPPAMVPQQRRQDGGHQRSSSVSGVPGSSSSSSSSSHKMPNYPGGMPPEAHPDHKSKQPGYNNRMPSSHQRSSSSGLGSSGSGSQHSSSSSSSSSQQPGRPSMPVDYHKSSRGMPPVGVGMPPHGSHKMTSGSKPQQPQQQPVPHPSASNSSASGMSSKDKSQSNKMYPNAPPPYSNSAPQNPLMSRGGYPGASNGSQPPPPAGYGGHRSKSGSTVHGMPHFEQQLPYSQSQSYGHMQQQPVPQSQQQQMPPEASQHSLQSKNSLFSPEWPDIKKEPMSQSQPQLFNGLLPPPAPPGHDYKLNSHPRDKESPKKERLTPTKKDKHRPVMPPMGSGNSSSGSGSSKPMLPPHKKQIPHGGDLLTNPGESGSLKRPNEISGSQYGLNKLDEIDNSNMPREKLRKLDTTTGLPTYPNYEEKHTPLNMSNGIETTPDLVRSLLKESLCPSNASLLKPDALTMPGLKPPAELLEPMPAPATIKKEQGITPMTSLASGPAPMDLEVPTKQAGEIKEESSSKSEKKKKKDKHKHKEKDKSKDKTEKEERKKHKRDKQKDRSGSGGSKDSSLPNEPLKMVIKNPNGSLQAGASAPIKLKISKNKVEPNNYSAAAGLPGAIGYGLPPTTATTTSASIGAAAPVLPPYGAGGGGYSSSGGSSSGGSSKKKHSDRDRDKESKKNKSQDYAKYNGAGGGIFNPLGGAGAAPNMSGGMGAPMSTAVPPSMLLAPTGAVPPSAAGLAPPPMPVYNKK
Regarding B1, the “CTD kinase assay (phosphate incorporation, mobility shift)” value is “incubation of P-TEFb with intact RNA polymerase II caused the incorporation of phosphate into the large subunit and a shift to the IIo form”; the “incorporation of label into the large subunit after chymotrypsin truncation of the CTD” value is given as “the CTD-less polymerase (20 min digestion) was not detectably phosphorylated”.
